Test [1] deals with GFP-CLDN1 with a single FLAG epitope inserted in EL1 at position F9 (human) (UniProt O95832). Nature of the test: cell-based or functional assay.
The target in test [2] is GFP-CLDN1 with a single FLAG epitope inserted in EL1 at position F8 (human) (UniProt O95832). Nature of the test: cell-based or functional assay.
Test [3] has as its target CLDN1 F10x3 (GFP-CLDN1 with a triple FLAG epitope inserted in EL1 at position F10) (human) (UniProt O95832). Briefly: cell-based or functional assay.
The target of test [4] is GFP-CLDN1 with a single FLAG epitope inserted in EL1 at position F6 (human) (UniProt O95832). Briefly: cell-based or functional assay.
Another test concerns the target human CD81 (human) (UniProt P60033). Nature of the test: cell-based or functional assay.
Test [5] addresses T1, J6/JFH HCVcc (cell culture infectious HCV particles of the chimeric genotype 2a J6/JFH genome) (Hepatitis C virus genotype 2a, isolate …, UniProt P26660 192-383; P26660 384-750).
T1 construct: A whole enveloped virion, not a single protein
Briefly: HCVcc bound to transduced CHO cells 2 h at 37 C; cell-associated HCV RNA by real-time RT-PCR. (Quantitative PCR measures a nucleic acid by following its amplification.)

A value given as a limit tells only on which side of the number the result lay.

Regarding “anti-FLAG M2 monoclonal antibody (Sigma)”, the reduction of HCVpp permissiveness (luciferase) of 293T cells expressing the clone, in the presence of antibody was less than 62% in test [1], less than 45% in test [2] and less than 90% in test [4]. The time after the temperature shift at which antibody addition still gives half-maximal inhibition of HCVpp infection (synchronized infection) in test [3] is 73 min. Take JS81 anti-CD81 antibody (BD Pharmingen): in the test with human CD81 (human), the time after the temperature shift at which antibody addition still gives half-maximal inhibition of HCVpp infection (synchronized infection) came to 18 min.

B1: human CLDN1 (Claudin-1), wild type (receptor)
chain: MANAGLQLLGFILAFLGWIGAIVSTALPQWRIYSYAGDNIVTAQAMYEGLWMSCVSQSTGQIQCKVFDSLLNLSSTLQATRALMVVGILLGVIAIFVATVGMKCMKCLEDDEVQKMRMAVIGGAIFLLAGLAILVATAWYGNRIVQEFYDPMTPVNARYEFGQALFTGWAAASLCLLGGALLCCSCPRKTTSYPTPRPYPKPAPSSGKDYV
notes: also called wild-type CLDN1
On to B1, for which the binding result in test [5] was “no binding (tested: MOI ~0.5)”.

B2: human CD81 (receptor)
chain: MGVEGCTKCIKYLLFVFNFVFWLAGGVILGVALWLRHDPQTTNLLYLELGDKPAPNTFYVGIYILIAVGAVMMFVGFLGCYGAIQESQCLLGTFFTCLVILFACEVAAGIWGFVNKDQIAKDVKQFYDQALQQAVVDDDANNAKAVVKTFHETLDCCGSSTLTALTTSVLKNNLCPSGSNIISNLFKEDCHQKIDDLFSGKLYLIGIAAIVVAVIMIFEMILSMVLCCGIRNSSVY
notes: whole, on cells
With B2, the binding result in test [5] is reported as “no binding (tested: MOI ~0.5)”.

These data come from patent publication US20090098123A1 (ROCKEFELLER UNIVERSITY, published 2009).
